Molecular target: EcoSSB-WT (Escherichia coli, UniProt P0AGE0 SEQ:1-177)
Experiment: EMSA; 5% TBE gel
Settings: tags: N-terminal His6-TEV site removed; commercial EcoSSB-WT also run; chain copies: 4 stated (homotetramer in solution)

B1: 70mer polyT (ssDNA)
DNA: TTTTTTTTTTTTTTTTTTTTTTTTTTTTTTTTTTTTTTTTTTTTTTTTTTTTTTTTTTTTTTTTTTTTTT
Question: Does B1 bind?
Answer: Result: binds
